Columns and labels:
Sprague Dawley rats = assay: Hemodynamics measurements after bolus intravenous injection of recombinant renalase; type: in vivo, rat
Experimental: Sprague Dawley rats (150-250 g) were anesthetized with inactin (100 mg/kg). A catheter (PE-240) was placed in the trachea for airway protection and in the left jugular vein (PE-50) for intravenous infusion of a maintenance fluid solution consisting of normal saline with 6.25% bovine albumin, at a rate of 1.5 ml per 100 g body wt per hour. Core temperature was monitored through a rectal thermometer and body temperature was maintained at 37° C. using a heating pad. Arterial pressure and heart rate were continuously monitored through a PE-50 catheter inserted in the left carotid artery and connected to a pressure transducer (ADInstruments, CO, USA). Hemodynamic recordings were digitized, stored and analyzed using a PowerLab/8SP data acquisition system (ADIntruments). The rats were allowed 1 h to recover after completion of the surgical procedure, and the subsequent 30 minutes served as a control period. The experimental group then received a bolus intravenous injection of 0.5 mg of recombinant renalase in 0.5 ml PBS. The control group was injected with either 0.5 mg BSA or 0.5 mg recombinant glutathione transferase in 0.5 ml of PBS. Blood pressure and heart rate were continuously measured and recorded.
Blood pressure is a function of cardiac output and peripheral vascular resistance, and is regulated by the sympathetic nervous system. Circulating catecholamines control heart rate, myocardial contractility, and the tone of resistance vessels. Since renalase circulates in blood and degrades catecholamines, we examined its in vivo effect on hemodynamic parameters. Within 30 seconds of a single bolus intravenous injection of recombinant renalase, systolic, diastolic and mean arterial pressure decreased by 23.5±1.3, 32.6±2.9 and 28.9±2.7% respectively, (n=4, p<0.001). […] Heart rate remained unchanged initially, and decreased slightly (6.4%) by 60 min, (FIG. 7A, lower panel). In control studies, blood pressure and heart rate were unaffected by either albumin or GST infusion (FIG. 7B). […] Alternatively, renalase could bind to a cognate receptor and modulate myocardial contractility and vascular resistance directly.

nephrectomized rats [1] = assay: Intervention model for chronic renal failure (rat remnant kidney model); type: in vivo; details: nephrectomized rats, 10, 100, 500 microgram/kg SQ twice per day, 4-8 weeks
Source text: (§1) A rat partial (5/6) nephrectomy or rat remnant kidney model can be used as described (Wada, M et al; J Clin Invest 1997 Dec. 15; 100(12):2977-83). Male rats (2-3 months old, weighing about 150-200 g) are subjected to unilateral nephrectomy (either left or right kidney) first. A 2.0 cm skin incision is made in the ventral midline, with its cranial terminus 1.0 cm caudal to the xyphoid process. A 2.0 cm muscle incision is made along the midline. The right kidney is isolated and cleared of surrounding fat and connective tissue to clearly view the renal artery and vein, and ureter as they enter the hilus of the kidney. Care is exercised to minimize disturbance of the adrenal gland. A ligature (3/0 silk) is placed around the renal artery, vein and ureter. These vessels are then cut proximal to the kidney and the kidney is removed, taking care that the adrenal gland is not disturbed. The second step of the surgical procedure involves the removal of the 2/3 of the remaining kidney in 7-10 days after the first step. Plasma creatinine (Cr) and BUN levels rise dramatically due to the loss of renal mass and function. Over the next several weeks, plasma Cr and BUN levels of surviving animals decline somewhat toward normal values but remain elevated. Renal function then appears to remain relatively constant or stable for a period of variable duration. […]

[2] = Amine oxidase assay of renalase (Amplex Red Monoamine Oxidase Assay Kit) with amines as substrates; type: biochemical, human; details: GST-renalase fusion protein, battery of amines as substrates, 2 mM
Experimental: Enzyme assay of renalase was carried out using an Amplex Red Monoamine Oxidase Assay Kit (Molecular Probes, Cat # A-12214) that provides one-step fluorometric method for the continuous measurement of amine oxidase activity using a fluorescence microplate reader. The assay is based on the detection of H2O2 in a horseradish peroxidase-coupled reaction using 10-acetyl-3,7-dihydroxy-phenoxazine (Amplex Red reagent), a highly sensitive and stable probe for H2O2. Experiments were carried out according to manufacturer's instruction with a final substrate concentration of 2 mM.
Therefore, we tested whether it had oxidase activity using a battery of amines as substrates. Renalase fusion protein in E. Coli was generated by cloning renalase cDNA into a Glutathione-S-Transferase (GST)-1-containing pGEX expression vector using the GST Gene Fusion System. […] Its enzymatic activity was unaffected by inhibitors of the FAD-containing amine oxidases, MAO-A and MAO-B (FIG. 4b).
We subsequently tested whether renalase has an oxidase activity using a battery of amines as substrates. […] Thus, it can be concluded that renalase is novel protein that metabolizes dopamine, norepinephrine and epinephrine.

nephrectomized rats [3] = assay: Prophylactic model for chronic renal failure (rat remnant kidney model); type: in vivo; details: 100 microgram/kg SQ twice per day, 8-9 weeks
Source text: as §1

[4] = rat, nadir between 60-90 minutes after injection, n=4, p<0.01
[5] = rat, within 30 seconds of single bolus iv injection, 0.5 mg, n=4, p<0.001

B1: Renalase: novel FAD-dependent monoamine oxidase secreted by the kidney that metabolizes dopamine, norepinephrine and epinephrine; SEQ ID NO: 2 (protein, listed as Homo sapiens)
chain: MAQVLIVGAGMTGSLCAALLRRQTSGPLYLAVWDKADDSGGRMTTACSPHNPQCTADLGAQYITCTPHYAKKHQRFYDELLAYGVLRPLSSPIEGMVMKEGDCNFVAPQGISSIIKHYLKESGAEVYFRHRVTQINLRDDKWEVSKQTGSPEQFDLIVLTMPVPEILQLQGDITTLISECQRQQLEAVSYSSRYALGLFYEAGTKIDVPWAGQYITSNPCIRFVSIDNKKRNIESSEIGPSLVIHTTVPFGVTYLEHSIEDVQELVFQQLENILPGLPQPIATKCQKWRHSQVTNAAANCPGQMTLHHKPFLACGGDGFTQSNFDGCITSALCVLEALKNYI
Arterial elastance (Sprague Dawley rats; Table 1, renalase vs control 0.94 ± 0.09, n=3, NS): 0.8 ± 0.04 mmHg/uL
End diastolic pressure (Sprague Dawley rats; Table 1, renalase vs control 11.3 ± 1.8, n=5, NS): 9.3 ± 1.5 mmHg
Cardiac Output (Sprague Dawley rats; Table 1, renalase vs control 45.8 ± 2.8, n=3, p<0.03): 33.2 ± 1.5 mL/min
Mean Arterial Pressure (Sprague Dawley rats; Table 1, renalase vs control 106.4 ± 4.7, n=8, p<0.0001): 65.3 ± 3.5 mmHg
End systolic pressure (Sprague Dawley rats; Table 1, renalase vs control 127.7 ± 8.1, n=5, p<0.004): 92.7 ± 2.7 mmHg
Heart rate (Sprague Dawley rats; Table 1, renalase vs control 342 ± 6, n=5, p<0.004): 304 ± 9 beats/min
Systemic vascular resistance (Sprague Dawley rats; Table 1, renalase vs control 2323 ± 196, n=3, NS): 1966 ± 183 mmHg/L/min
dP/dt (Sprague Dawley rats; Table 1, renalase vs control 8604 ± 728, n=5, p<0.001): 5235 ± 442 mmHg/sec
decrease in heart rate (Sprague Dawley rats; rat, by 60 min after injection): 6.4%
heart rate, initial response (Sprague Dawley rats; rat, initially after bolus iv injection): unchanged
diastolic arterial pressure lower than baseline at nadir (Sprague Dawley rats; [4]): 14.3±1.2%
mean arterial pressure lower than baseline at nadir (Sprague Dawley rats; [4]): 14.8±1.1%
systolic arterial pressure lower than baseline at nadir (Sprague Dawley rats; [4]): 16.5±1.5%
time to recovery of blood pressure after initial fall (Sprague Dawley rats; rat, single bolus iv injection): ≤ 2 min
decrease in diastolic arterial pressure (Sprague Dawley rats; [5]): 32.6±2.9%
decrease in mean arterial pressure (Sprague Dawley rats; [5]): 28.9±2.7%
decrease in systolic arterial pressure (Sprague Dawley rats; [5]): 23.5±1.3%
expected treatment benefit to Nx rats (plasma BUN, Cr) (nephrectomized rats [1]): slow down chronic renal failure progression
rank order potency of catecholamine metabolism [2]: dopamine>epinephrine>norepinephrine
expected effect on initiation of chronic renal failure (plasma BUN, Cr) (nephrectomized rats [3]): prevent, inhibit or delay the initiation of chronic renal failure
